The series concerns Escherichia coli TOP10. Nature of the series: shrunken log2 fold change of peptide-encoding DNA abundance (4.5 h post-induction vs induction); higher = less antimicrobial activity (less host growth inhibition). As to conditions: time post-induction: 4.5 h; library: site-saturation at positions 5, 18, 19, 20.
Regarding RRIRIRPPRLPRPRPRPFFQPRP, the “shrunken log2 fold change” value is -0.412.

Consider RRIRTRPPRLPRPRPRPHLYPRP, for which the “shrunken log2 fold change” value is -0.154.

On to RRIRFRPPRLPRPRPRPAINPRP, for which the “shrunken log2 fold change” value is -0.239.

RRIRQRPPRLPRPRPRPAMRPRP: the “shrunken log2 fold change” value was found to be 0.718.

As for RRIRNRPPRLPRPRPRPIMLPRP, the “shrunken log2 fold change” value was -0.482. The same measure for RRIRNRPPRLPRPRPRPAAMPRP: -0.223; for RRIRFRPPRLPRPRPRPSKPPRP: -0.0327. Next, RRIRLRPPRLPRPRPRPVPAPRP: 0.222; RRIRWRPPRLPRPRPRPALPPRP: 0.374; RRIRGRPPRLPRPRPRPHPYPRP: 0.0786. Next, RRIRARPPRLPRPRPRPFNRPRP: -0.277; RRIRMRPPRLPRPRPRPVIWPRP: 0.46; RRIRVRPPRLPRPRPRPYWCPRP: -0.409.

For the sequence RRIRQRPPRLPRPRPRPAFTPRP, the “shrunken log2 fold change” value was -0.00944. For RRIRMRPPRLPRPRPRPPPGPRP, the “shrunken log2 fold change” value is 1.86. The same measure for RRIRCRPPRLPRPRPRPRSNPRP: -0.349; for RRIRYRPPRLPRPRPRPKKQPRP: -0.00353; for RRIRGRPPRLPRPRPRPHLVPRP: 0.294. In the case of RRIRTRPPRLPRPRPRPYILPRP, the “shrunken log2 fold change” value is -0.0244. Next, RRIRIRPPRLPRPRPRPNSDPRP: -0.267. Turning to RRIRVRPPRLPRPRPRPDNLPRP, the “shrunken log2 fold change” value amounted to 0.0725. As for RRIRMRPPRLPRPRPRPFEPPRP, the “shrunken log2 fold change” value was determined as 0.174.

As for RRIRHRPPRLPRPRPRPYFMPRP, the “shrunken log2 fold change” value was -0.489. Next, RRIRDRPPRLPRPRPRPQYLPRP: -0.248; RRIRKRPPRLPRPRPRPEADPRP: 0.00157; RRIRDRPPRLPRPRPRPSTCPRP: -0.0465. As for RRIRVRPPRLPRPRPRPNKTPRP, the “shrunken log2 fold change” value was 0.172. Next, RRIRDRPPRLPRPRPRPYPQPRP: -0.582. On to RRIRARPPRLPRPRPRPIQIPRP, for which the “shrunken log2 fold change” value was -0.103. On to RRIRMRPPRLPRPRPRPLQIPRP, for which the “shrunken log2 fold change” value was -0.343. As to RRIRVRPPRLPRPRPRPCSQPRP, the “shrunken log2 fold change” value is -0.0327. The same measure for RRIRERPPRLPRPRPRPWKDPRP: -0.162. The same measure for RRIRERPPRLPRPRPRPHIHPRP: -0.135. Consider RRIRERPPRLPRPRPRPIQQPRP, for which the “shrunken log2 fold change” value is -0.0452.

For RRIRDRPPRLPRPRPRPMCWPRP, the “shrunken log2 fold change” value was 0.564. Take RRIRCRPPRLPRPRPRPMHMPRP: the “shrunken log2 fold change” value was -0.14. As to RRIRKRPPRLPRPRPRPMRPPRP, the “shrunken log2 fold change” value is 1.22. Consider RRIRARPPRLPRPRPRPIPSPRP, for which the “shrunken log2 fold change” value is -0.156. In the case of RRIRLRPPRLPRPRPRPSLFPRP, the “shrunken log2 fold change” value is -0.373. For RRIRARPPRLPRPRPRPYYKPRP, the “shrunken log2 fold change” value was -0.675. RRIRIRPPRLPRPRPRPVGHPRP: the “shrunken log2 fold change” value is -0.0495. As for RRIRQRPPRLPRPRPRPLMDPRP, the “shrunken log2 fold change” value stood at 0.0125.

Turning to RRIRVRPPRLPRPRPRPCKQPRP, the “shrunken log2 fold change” value is -0.148. Consider RRIRLRPPRLPRPRPRPEMVPRP, for which the “shrunken log2 fold change” value is 0.201. Consider RRIRMRPPRLPRPRPRPCQMPRP, for which the “shrunken log2 fold change” value stood at 0.00911. Turning to RRIRERPPRLPRPRPRPIPDPRP, the “shrunken log2 fold change” value is -0.209.

In the case of RRIRGRPPRLPRPRPRPRDFPRP, the “shrunken log2 fold change” value came out at 0.619. As for RRIRQRPPRLPRPRPRPNRRPRP, the “shrunken log2 fold change” value stood at 0.103. Take RRIRNRPPRLPRPRPRPPCEPRP: the “shrunken log2 fold change” value is 0.0665. For the sequence RRIRERPPRLPRPRPRPWSIPRP, the “shrunken log2 fold change” value came out at 0.0521. Take RRIRMRPPRLPRPRPRPMCPPRP: the “shrunken log2 fold change” value was -0.00088. Next, RRIRNRPPRLPRPRPRPMEHPRP: 0.0201; RRIRCRPPRLPRPRPRPLQRPRP: 0.203; RRIRVRPPRLPRPRPRPKNVPRP: -0.0901.

For the sequence RRIRQRPPRLPRPRPRPAQIPRP, the “shrunken log2 fold change” value stood at 0.028.

Turning to RRIRIRPPRLPRPRPRPLPPPRP, the “shrunken log2 fold change” value is 0.127. In the case of RRIRDRPPRLPRPRPRPNRAPRP, the “shrunken log2 fold change” value is 0.563.

With RRIRYRPPRLPRPRPRPRNYPRP, the “shrunken log2 fold change” value was -1.26. As to RRIRKRPPRLPRPRPRPLELPRP, the “shrunken log2 fold change” value was found to be 0.134. Consider RRIRERPPRLPRPRPRPKGDPRP, for which the “shrunken log2 fold change” value is -0.0914. RRIRGRPPRLPRPRPRPMYPPRP: the “shrunken log2 fold change” value was determined as 0.244. In the case of RRIRSRPPRLPRPRPRPVCTPRP, the “shrunken log2 fold change” value is -0.0518. In the case of RRIRERPPRLPRPRPRPNAEPRP, the “shrunken log2 fold change” value was 0.103. For RRIRSRPPRLPRPRPRPEEWPRP, the “shrunken log2 fold change” value is -0.0481. With RRIRQRPPRLPRPRPRPNIDPRP, the “shrunken log2 fold change” value is -0.516. Consider RRIRGRPPRLPRPRPRPSYLPRP, for which the “shrunken log2 fold change” value is -0.479. On to RRIRARPPRLPRPRPRPDQEPRP, for which the “shrunken log2 fold change” value was determined as 0.0233. The same measure for RRIRYRPPRLPRPRPRPESFPRP: -0.0275; for RRIRTRPPRLPRPRPRPVIAPRP: -0.189.

In the case of RRIRNRPPRLPRPRPRPPWSPRP, the “shrunken log2 fold change” value was -0.294. The same measure for RRIRDRPPRLPRPRPRPDGLPRP: 0.107. Regarding RRIRLRPPRLPRPRPRPVPSPRP, the “shrunken log2 fold change” value was found to be 0.157. On to RRIRKRPPRLPRPRPRPQNHPRP, for which the “shrunken log2 fold change” value was determined as 2.37. In the case of RRIRPRPPRLPRPRPRPQAYPRP, the “shrunken log2 fold change” value was -0.215. For RRIRYRPPRLPRPRPRPWRNPRP, the “shrunken log2 fold change” value is -0.00674. RRIRKRPPRLPRPRPRPAKPPRP: the “shrunken log2 fold change” value stood at 0.464. Regarding RRIRGRPPRLPRPRPRPHVKPRP, the “shrunken log2 fold change” value was -0.0605.

With RRIRNRPPRLPRPRPRPPMNPRP, the “shrunken log2 fold change” value is -0.0606.

As for RRIRDRPPRLPRPRPRPPHDPRP, the “shrunken log2 fold change” value was found to be 2.35. For RRIRCRPPRLPRPRPRPDLYPRP, the “shrunken log2 fold change” value is -0.0793. With RRIRDRPPRLPRPRPRPIELPRP, the “shrunken log2 fold change” value stood at 0.0698. Next, RRIRHRPPRLPRPRPRPYELPRP: -0.116; RRIRKRPPRLPRPRPRPEELPRP: 2.77.

For RRIRPRPPRLPRPRPRPFAGPRP, the “shrunken log2 fold change” value is 0.0806. Regarding RRIRRRPPRLPRPRPRPYQLPRP, the “shrunken log2 fold change” value was -0.234. Turning to RRIRHRPPRLPRPRPRPSYLPRP, the “shrunken log2 fold change” value was -0.683. Take RRIRKRPPRLPRPRPRPKKGPRP: the “shrunken log2 fold change” value came out at 0.368. The same measure for RRIRVRPPRLPRPRPRPPFMPRP: 1.97. For RRIRHRPPRLPRPRPRPHHNPRP, the “shrunken log2 fold change” value is -0.672. Consider RRIRPRPPRLPRPRPRPLSQPRP, for which the “shrunken log2 fold change” value is -0.185. Turning to RRIRFRPPRLPRPRPRPNLRPRP, the “shrunken log2 fold change” value was -0.0383. For the sequence RRIRPRPPRLPRPRPRPKELPRP, the “shrunken log2 fold change” value was found to be 0.0936. The same measure for RRIRARPPRLPRPRPRPASWPRP: 0.537; for RRIRIRPPRLPRPRPRPDMPPRP: -0.109.

Take RRIRRRPPRLPRPRPRPESKPRP: the “shrunken log2 fold change” value stood at 0.265. In the case of RRIRIRPPRLPRPRPRPFLSPRP, the “shrunken log2 fold change” value is -0.282. Next, RRIRNRPPRLPRPRPRPNIWPRP: -0.636; RRIRMRPPRLPRPRPRPKTQPRP: 0.971; RRIRPRPPRLPRPRPRPTLMPRP: 0.227. Consider RRIRDRPPRLPRPRPRPRCFPRP, for which the “shrunken log2 fold change” value was 1.66. As to RRIRLRPPRLPRPRPRPFFRPRP, the “shrunken log2 fold change” value was -0.0862. As to RRIRYRPPRLPRPRPRPLTYPRP, the “shrunken log2 fold change” value was -0.144. Regarding RRIRWRPPRLPRPRPRPDDHPRP, the “shrunken log2 fold change” value stood at 0.0959.

As to RRIRCRPPRLPRPRPRPEIPPRP, the “shrunken log2 fold change” value was 0.0317.

For the sequence RRIRYRPPRLPRPRPRPHHIPRP, the “shrunken log2 fold change” value is -0.356. Take RRIRRRPPRLPRPRPRPCQSPRP: the “shrunken log2 fold change” value was 0.0448.

As for RRIRERPPRLPRPRPRPGLAPRP, the “shrunken log2 fold change” value was 0.178. For the sequence RRIRFRPPRLPRPRPRPNRWPRP, the “shrunken log2 fold change” value was found to be 0.0144.

In the case of RRIRVRPPRLPRPRPRPHLDPRP, the “shrunken log2 fold change” value came out at 0.0818. Turning to RRIRVRPPRLPRPRPRPCVSPRP, the “shrunken log2 fold change” value is -0.0282.

In the case of RRIRCRPPRLPRPRPRPKGYPRP, the “shrunken log2 fold change” value is -0.0908. Next, RRIRLRPPRLPRPRPRPYQSPRP: -0.524; RRIRCRPPRLPRPRPRPHVEPRP: -0.421. Take RRIRKRPPRLPRPRPRPNHAPRP: the “shrunken log2 fold change” value is -0.022. As to RRIRLRPPRLPRPRPRPHYHPRP, the “shrunken log2 fold change” value was -1.26. Next, RRIRLRPPRLPRPRPRPDSLPRP: -0.335. For RRIRGRPPRLPRPRPRPFGNPRP, the “shrunken log2 fold change” value is 0.0288. On to RRIRWRPPRLPRPRPRPHAWPRP, for which the “shrunken log2 fold change” value turned out to be 0.0328. In the case of RRIRFRPPRLPRPRPRPFNTPRP, the “shrunken log2 fold change” value is -0.688. As for RRIRGRPPRLPRPRPRPAMLPRP, the “shrunken log2 fold change” value was determined as 0.7. The same measure for RRIRRRPPRLPRPRPRPFLKPRP: -0.0464; for RRIRCRPPRLPRPRPRPRFLPRP: -0.232. Consider RRIRHRPPRLPRPRPRPAAGPRP, for which the “shrunken log2 fold change” value turned out to be 0.323. For RRIRTRPPRLPRPRPRPCIDPRP, the “shrunken log2 fold change” value is -0.519. Turning to RRIRLRPPRLPRPRPRPQPEPRP, the “shrunken log2 fold change” value came to 0.419.

The record behind these values is the supplement of paper PMC9112550, “Optimization of the antimicrobial peptide Bac7 by deep mutational scanning” (BMC Biology, 2022).
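Note: peptides expressed intracellularly from a pBAD plasmid library in pooled LB shake-flask culture, induced with 0.3% L-arabinose, DNA abundance read by NGS, three biological replicates, DESeq2 with apeglm shrinkage.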
